Assay results reported in paper PMC12262184, “Structural insights into transcriptional regulation by the helicase RECQL5” (Nature Structural & Molecular Biology, 2025).

Target: RPB1 subunit of human RNA polymerase II (human (endogenous in HeLa), UniProt P24928 1-1970)
Test: cryo-EM structure; EC_(REC-Apo): Pol II on anti-RPB1-protein G resin incubated with tenfold excess of nucleic acid scaffold, then tenfold excess of RECQL5_(1–620)-D157A, no nucleotide; eluted with RPB1 triheptapeptide repeat; crosslinked with 0.02% glutaraldehyde; graphene oxide grids
Conditions: both partners purified

binding result: binds
B1: RECQL5_(1–620)-D157A (domain or fragment)
chain: MSSHHTTFPFDPERRVRSTLKKVFGFDSFKTPLQESATMAVVKGNKDVFVCMPTGAGKSLCYQLPALLAKGITIVVSPLIALIQDQVDHLLTLKVRVSSLNSKLSAQERKELLADLEREKPQTKILYITPEMAASSSFQPTLNSLVSRHLLSYLVVAEAHCVSQWGHDFRPDYLRLGALRSRLGHAPCVALTATATPQVQEDVFAALHLKKPVAIFKTPCFRANLFYDVQFKELISDPYGNLKDFCLKALGQEADKGLSGCGIVYCRTREACEQLAIELSCRGVNAKAYHAGLKASERTLVQNDWMEEKVPVIVATISFGMGVDKANVRFVAHWNIAKSMAGYYQESGRAGRDGKPSWCRLYYSRNDRDQVSFLIRKEVAKLQEKRGNKASDKATIMAFDALVTFCEELGCRHAAIAKYFGDALPACAKGCDHCQNPTAVRRRLEALERSSSWSKTCIGPSQGNGFDPELYEGGRKGYGDFSRYDEGSGGSGDEGRDEAHKREWNLFYQKQMQLRKGKDPKIEEFVPPDENCPLKEASSRRIPRLTVKAREHCLRLLEEALSSNRQSTRTADEADLRAKAVELEHETFRNAKVANLYKASVLKKVADIHRASKDGQPYDM
notes: RECQL5 helicase, human, residues 1-620 (helicase D1 and D2 subdomains, RQC domain, IRI module with αN helix and KIX domain); lacks the unstructured region and the SRI domain; The purification is described for GST-tagged RECQL5_(1–620) in general; Used without nucleotide in EC_(REC-Apo); also called truncated RECQL5 construct; source: E. coli BL21-CodonPlus (DE3)-RIL, purified (glutathione …)
